# Measured values taken from article PMC7181697.
# What was measured:
# [1] = target: REV7^W171A-SHLD3(1–82) (human) (UniProt Q9UI95); experiment: ITC; method not named in the sentence (Supplementary Fig. 7e, f); ITC is the only method for affinities that the methods describe
# [2] = target: REV7^Y63A-SHLD3(1–82) (human) (UniProt Q9UI95); experiment: as above
# Chain of REV7^Y63A-SHLD3(1–82) (human) (Q9UI95 whole entry Y63A, chain 1 of 2): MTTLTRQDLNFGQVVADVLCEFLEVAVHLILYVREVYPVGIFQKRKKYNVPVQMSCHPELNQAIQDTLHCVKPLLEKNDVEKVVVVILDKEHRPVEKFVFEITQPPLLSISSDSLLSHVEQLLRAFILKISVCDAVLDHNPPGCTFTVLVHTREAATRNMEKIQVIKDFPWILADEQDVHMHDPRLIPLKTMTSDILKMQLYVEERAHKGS
# Chain of REV7^Y63A-SHLD3(1–82) (human) (Q6ZNX1 1-82, chain 2 of 2, further chain): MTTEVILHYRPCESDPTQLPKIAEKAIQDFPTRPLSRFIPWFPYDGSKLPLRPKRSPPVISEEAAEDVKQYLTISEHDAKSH
# Chain of REV7^W171A-SHLD3(1–82) (human) (Q9UI95 whole entry W171A, chain 1 of 2): as the sequence (Q9UI95 whole entry Y63A, chain 1 of 2) above, with A63Y, W171A counted along it
# Chain of REV7^W171A-SHLD3(1–82) (human) (Q6ZNX1 1-82, chain 2 of 2, further chain): as the sequence (Q6ZNX1 1-82, chain 2 of 2, further chain) above
binder,measurement,setting,value
MBP-REV3(1847–2021) (domain or fragment) MLTPTPDSSPRSTSSPSQSKNGSFTPRTANILKPLMSPPSREEIMATLLDHDLSETIYQEPFCSNPSDVPEKPREIGGRLLMVETRLANDLAEFEGDFSLEGLRLWKTAFSAMTQNPRPGSPLRSGQGVVNKGSSNSPKMVEDKKIVIMPCKCAPSRQLVQVWLQAKEEYERSKK,Kd,[1],1.1 µM
same,Kd,[2],37 µM
